Experimental data from patent US11180770B2, “HPPD variants and methods of use” (BASF Agricultural Solutions Seed US LLC, priority 2017, dated 2021).
Where a chain is given by its changes, count along the chain named.

B1: 4 (protein)
chain: MADLYENPMGLMGFEFIEFASPTPGTLEPIFEIMGFTKVATHRSKNVHLYRQGEINLILNNEPNSIASYFAAEHGPSVCGMAFRVKDSQKAYNRALELGAQPIHIDTGPMELNLPAIKGIGGAPLYLIDRFGEGSSIYDIDFVYLEGVERNPVGAGLKVIDHLTHNVYRGRMVYWANFYEKLFNFREARYFDIKGEYTGLTSKAMSAPDGMIRIPLNEESSKGAGQIEEFLMQFNGEGIQHVAFLTDDLVKTWDALKKIGMRFMTAPGDTYYEMLEGRLPDHGEPVDQLQARGILLDGSSVEGDKRLLLQIFSETLMGPVFFEFIQRKGDDGFGPDSFKVLFESIERDQVRRGVLTAD
modifications: mutant HPPD polypeptide
B2: 5 (protein)
chain: B1 chain with G268P
modifications: mutant HPPD polypeptide
B3: 6 (protein)
chain: B1 chain with G268A, T270N
modifications: mutant HPPD polypeptide
B4: 7 (protein)
chain: B1 chain with T270N
modifications: mutant HPPD polypeptide
B5: 8 (protein)
chain: B1 chain with G268P, T270N
modifications: mutant HPPD polypeptide
B6: 9 (protein)
chain: B1 chain with G268A, I345V
modifications: mutant HPPD polypeptide
B7: 10 (protein)
chain: B1 chain with I345V
modifications: mutant HPPD polypeptide
B8: 11 (protein)
chain: B1 chain with G268P, I345V
modifications: mutant HPPD polypeptide
B9: 12 (protein)
chain: B1 chain with G268A, T270N, I345V
modifications: mutant HPPD polypeptide
B10: 13 (protein)
chain: B1 chain with T270N, I345V
modifications: mutant HPPD polypeptide
B11: 14 (protein)
chain: B1 chain with G268P, T270N, I345V
modifications: mutant HPPD polypeptide
B12: 15 (protein)
chain: B1 chain with G268R, T270N, I345V
modifications: mutant HPPD polypeptide
B13: 16 (protein)
chain: B1 chain with G268S, T270N, I345V
modifications: mutant HPPD polypeptide
B14: 17 (protein)
chain: B1 chain with G268A, T270E, I345V
modifications: mutant HPPD polypeptide
B15: 18 (protein)
chain: B1 chain with G268P, T270E, I345V
modifications: mutant HPPD polypeptide
B16: 19 (protein)
chain: B1 chain with G268R, T270E, I345V
modifications: mutant HPPD polypeptide
B17: 20 (protein)
chain: B1 chain with G268S, T270E, I345V
modifications: mutant HPPD polypeptide
B18: 21 (protein)
chain: B1 chain with G268A, S344Q, I345V
modifications: mutant HPPD polypeptide
B19: 22 (protein)
chain: B1 chain with S344Q, I345V
modifications: mutant HPPD polypeptide
B20: 23 (protein)
chain: B1 chain with G268P, S344Q, I345V
modifications: mutant HPPD polypeptide
B21: 24 (protein)
chain: B1 chain with G268A, D336H
modifications: mutant HPPD polypeptide
B22: 25 (protein)
chain: B1 chain with D336H
modifications: mutant HPPD polypeptide
B23: 26 (protein)
chain: B1 chain with G268P, D336H
modifications: mutant HPPD polypeptide
B24: 27 (protein)
chain: B1 chain with G268A, T270N, D336H
modifications: mutant HPPD polypeptide
B25: 28 (protein)
chain: B1 chain with T270N, D336H
modifications: mutant HPPD polypeptide
B26: 29 (protein)
chain: B1 chain with G268P, T270N, D336H
modifications: mutant HPPD polypeptide
B27: 30 (protein)
chain: B1 chain with G268A, D336H, I345V
modifications: mutant HPPD polypeptide

Test system: HPPD polypeptides
Test: coupled HPPD activity assay: turnover and residual turnover in crude extracts
Type: biochemical, Pseudomonas fluorescens
Conditions: for Residual turnover [%]: 100 μM Cmpd. 1, signal change with inhibitor divided by signal change without inhibitor; for Turnover: absence of Cmpd. 1, kinetic changes in absorbance (OD) at 320 nm, 30 min; for Turnover / Residual turnover: high substrate concentration; for Residual turnover: presence of 100 μM Cmpd. 1, changes in absorbance (OD) at 320 nm
Procedure: The activity of HPPD polypeptides was determined in absence or presence of HPPD inhibitors using the coupled HPPD activity assay (FIG. 1).
For the determination of the residual activity, the apparent kinetic constant (kapp) of the determined substrate conversion was measured as kinetic changes in absorbance (OD) at 320 nm in a coupled assay, in that homogentisate (HGA) formed by HPPD from HPP is directly converted into the well absorbing molecule maleylacetoacetate (MAA) by a second enzyme homogentisate dioxygenase (HGD), applied in excess uniformly in all assays (see FIG. 1). The measurements were performed in 384 micro titer plates (Greiner Bio-One GmbH, Frickenhausen, Germany) by plate readers (Tecan infinite M1000 or M1000PRO, Tecan, Männedorf, Switzerland). The kcat/kM ratio of an enzymatic activity is proportional to the apparent kinetic constant kapp and is proportional to kcat/kM*[E] ([E]=enzyme concentration). […] As both kapp measurements in the presence and absence of inhibitor were performed by use of the identical enzyme sample, crude or purified, and thereby at the same enzyme concentration, the enzyme concentration eliminates from the calculation of residual activity and the ratio of both kapp directly indicates the change of kM due to the inhibition.
The assay solution used for determination of residual activities in raw HPPD polypeptide samples was composed by 200 mM sodium phosphate (Merck, Darmstadt, Germany, pH 7.0), 5 mM MgCl2 (Merck, Darmstadt, Germany), 20 mM ascorbate (Sigma-Aldrich, St. Louis, USA), 1 mM DTT (Sigma-Aldrich, St. Louis, USA), 0.1% Pluronic F-68 (Sigma-Aldrich, St. Louis, USA), 40 μM FeSO4 (Sigma-Aldrich, St. Louis, USA), about 8 mg/ml purified HGD and 500 μM HPP from a 1 M stock solution in DMSO (Sigma-Aldrich, St. Louis, USA) and equilibrated for 20 min on ice. For every HPPD polypeptide sample two assays were performed in quadruplets, whereby 5 μl of HPPD polypeptide sample were mixed firstly with 5 μl buffer (1×BugBuster®; (Merck, Darmstadt, Germany); in 140 mM Tris, pH 7.8, with 1:25000 diluted BNase®; Qiagen, Hilden, Germany)) or 5 μl inhibitor diluted in the same buffer from a 0.1 M stock solution in DMSO (200 μM resulting in 100 μM in the HPPD polypeptide/inhibitor sample) in the reference and inhibition assay, respectively, and subsequently with 10 μl assay solution. The change in absorbance at 320 nm was followed in 1 min intervals for 30 min. The kapp values were calculated as signal slope over time in the early phase of the kinetic reaction, usually for the first 5-10 minutes of the measurements. Additionally and according to the calculated residual activity, the total conversion, i.e. the absolute change in signal, in the 30 min timeframe was monitored as measure of turnover, and a residual turnover was calculated by dividing the change in signal in the presence of inhibitor by the change in signal in the reference sample without inhibitor.
Residual turnover were determined according to Example 3 by measuring total change in signal in the presence and absence of Cmpd. 1 (2-chloro-3-(methylsulfanyl)-N-(1-methyl-1H-tetrazol-5-yl)-4-(trifluoromethyl)benzamide). For each mutant HPPD polypeptide, the total change in signal without HPPD inhibitor herbicides served for normalization of the total change in signal in the presence of the herbicide.

| Molecule | Residual turnover [%] | Turnover | Residual turnover |
| --- | --- | --- | --- |
| B1 | 44 | 0.126 | 0.055 |
| B2 | 38 | 0.157 | 0.059 |
| B3 | 50 | 0.165 | 0.082 |
| B4 | 42 | 0.149 | 0.063 |
| B5 | 50 | 0.107 | 0.054 |
| B6 | 52 | 0.102 | 0.053 |
| B7 | 56 | 0.125 | 0.070 |
| B8 | 44 | 0.160 | 0.071 |
| B9 | 50 | 0.115 | 0.058 |
| B10 | – | 0.024 | – |
| B11 | 33 | 0.188 | 0.062 |
| B12 | – | 0.040 | 0.030 |
| B13 | 46 | 0.181 | 0.083 |
| B14 | 59 | 0.138 | 0.081 |
| B15 | 43 | 0.134 | 0.057 |
| B16 | 45 | 0.141 | 0.063 |
| B17 | 53 | 0.199 | 0.105 |
| B18 | 51 | 0.157 | 0.080 |
| B19 | 47 | 0.132 | 0.062 |
| B20 | 39 | 0.193 | 0.076 |
| B21 | 39 | 0.271 | 0.105 |
| B22 | 39 | 0.215 | 0.083 |
| B23 | 28 | 0.279 | 0.077 |
| B24 | 38 | 0.266 | 0.101 |
| B25 | 43 | 0.204 | 0.088 |
| B26 | 29 | 0.289 | 0.084 |
| B27 | 48 | 0.311 | 0.149 |
